Experiment: yeast display, Sf9 membrane polyspecificity reagent, FACS + sequencing; frameworks hold sequencing errors
Outline: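 Sorting gates, low and high (top ~1%), were placed on anti-HA fluorescence to track expression and on streptavidin fluorescence to track reagent binding. A clone's polyreactivity label is taken from the gate it came out of. The reagent was 10% biotinylated, detergent-solubilized Sf9 membrane, applied for 1 hour at 4 °C to galactose-induced yeast display cells.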

Sequence	polyreactivity (PSR sort gate)
QVQLVESGGGLVQAGGSLRLSCAASGYIFSYNAMGWYRQAPGKERELVAAITASGGGTYYADSVKGRFTISRDNAKNTVYLQMNSLKPDDTAVYYCAATPYSTQGLRPKFDYWGQGTQVTVSS	low polyreactivity
QVQLVESGGGLVQAGGSLRLSCAASGYIFSYYAMGWYRQAPGKEREFVAAIRWRGGSTYYADSVKGRFTISRDNAKKTVYLQMNSLKPEDTAVYYCAAGPGTSYYWGQGTQVTVSS	high polyreactivity
QVQLVESGGGLVQAGGSLRLSCAASGYIFSYYAMGWYRQAPGKEREFVAAIRWRGGSTYYADSVKGRFTISRDNAKNTVYLQMNSLKPEDTAVYYCAAGPGTSYYWGQGTQVTVSS	high polyreactivity
QVQLVESGGGLVQAGGSLRLSCAASGYIFTDYDMGWYRPAPGKEREFVAAISSSGGSTYYADSVKGRFTISRDNAKNTVYLQMNRLKPEDTAVYYCAARRRYGRYRGAYDYWGQGTRVTVSS	high polyreactivity
QVQLVESGGGLVQAGGSLRLSCAASGYIFTIYAMGWYRQAPGKERELVAAITWSGATTYYADSVKGRFTISRDNAKNTVYLQMNSLKPEDTAVYYCNADYWHYYEDYDSWGQGTQVTVSS	low polyreactivity
QVQLVESGGGLVQAGGSLRLSCAASGYIFTVYAMGWYRQAPGKERELVAAINWSDGSTYYADSVKGRFTISRDNAKNTVYLQMNSLKPEDTAVYYCAAESRYQRYDYWGQGTQVTVSS	high polyreactivity
QVQLVESGGGLVQAGGSLRLSCAASGYIFTYNAMGWYRQAPGKERELVAAISYSGGSTYYADSVKGRFTISRDNAKNTVYLQINSLNPEDTAVYYCNAVWRHTYGNYFWGQGTQVTVSS	high polyreactivity
QVQLVESGGGLVQAGGSLRLSCAASGYIFTYTMGWYRQAPGKERELVAAISKSGGSTYYADSVKGRFTLSRDNAKNTVYLQMNSLKPEDTAVYYCARRGRYYLYTDDYDYWGQGTQVTVSS	high polyreactivity
QVQLVESGGGLVQAGGSLRLSCAASGYIFVYNAMGWYRQAPGKERELVAAISTTGGRTYYADSVKGRFTISRDNAKNTVYLLMNSLKPEDTAVYYCAARAYYAWTLFGYWGQGTQVTVSS	high polyreactivity
QVQLVESGGGLVQAGGSLRLSCAASGYIFWKNAMGWYRQAPGKERELVAGITIRGGRTYYADSVKGRFTISRDNAKNTVYLQMNSLKPEDTAVYYCNALYDYYDPYGSWGQGTQVTVSS	high polyreactivity
QVQLVESGGGLVQAGGSLRLSCAASGYIFWLNALGWYRQAPGKERELVAAIRSSGGSTYYADSVKGRFTISRDNAKNTVYLQMNSLKPEDTAVYDCARRGYNWYTHFGYDYWGQGTQVTVSS	low polyreactivity
QVQLVESGGGLVQAGGSLRLSCAASGYIFWYNAMGWYRQAPGKERELVAAISRSGGRTYYADSVKGRCTISRDNAKNTVYLQMNSLKPDDTAVYYCAAGSSHHYVYEGGYWGQGTQVTVSS	low polyreactivity
QVQLVESGGGLVQAGGSLRLSCAASGYIFYGYAMGWYRQAHGKERELVAAITVRGGSTYYADSVKGRFTISRDNAKNTVYLQMNSLNPEDTAVYYWAAAPQFTVGVGYWGQGTQVTVSS	low polyreactivity
QVQLVESGGGLVQAGGSLRLSCAASGYIFYGYDMGWYRQAQGKERDLVAGITYSGGGGTHYADSVKGRFTISRDNAKNTVYLQMNSLKPEDTAVYYCAKADPQLNRNYYSYGMDYWGQGTQVTVSS	low polyreactivity
QVQLVESGGGLVQAGGSLRLSCAASGYIFYYNGMGWYRQAPGKERELVAVISRRGGSTYYADSVKGRFTISRDNAKNTVYLQMNSLKPEDTAVYYCNARARSSRTYKYDYWGQGTQVTVSS	high polyreactivity
QVQLVESGGGLVQAGGSLRLSCAASGYIFYYYAMGWYRQAPGKERELVAAISSGGSTSYADSVKGRFTISRDNAKNTVYLQMNSLKPEDTAVYYCAAYKPWYVGLYPWYDYWGQGTQVTVSS	low polyreactivity
QVQLVESGGGLVQAGGSLRLSCAASGYIIDVNTMGWYRPAPGKDRELVAAITSGGTTYYADSVKGRFTISRDNAKNTVYLQMNSLKPEDTAAYYCAALWSRRRSRPSFDYWGQGTQVTVSS	high polyreactivity
QVQLVESGGGLVQAGGSLRLSCAASGYIIGRYVMGWYRQAPGKERELVAAITASGGSTYYADSVKGRFTISRDNAKNTVYLQMNSLKPEDTAVYYCAAPTYGRFLRNDYWGQGTQVTVSS	high polyreactivity
QVQLVESGGGLVQAGGSLRLSCAASGYIIWSYAMGWYRQAPGKERELVAGISYSGGSTYYADSVKGRFTISRDNAKNTVYLQMNSLKPEDTAVFYCAALRRGYVPFGYWGQGTQVTVSS	high polyreactivity
QVQLVESGGGLVQAGGSLRLSCAASGYILGRYAMGWSRQAPGNERELVAAITSGASTYYADSVKGRFTISRDNAKNTVYLQMNSLKPEDTAVYYCARVNGAKQGGEYDYWGQGTQVTVSS	high polyreactivity
QVQLVESGGGLVQAGGSLRLSCAASGYILRSNAMGWYRQAPGKEREFVAAITYSGGSTYYADSVKGRFTISRDNAKNTVYFQRNSLKPEATAVYSCSKTTRYRRGYGYWGQGTEVTVSS	low polyreactivity
QVQLVESGGGLVQAGGSLRLSCAASGYILTHYAMGWYRQAPGKERELVAAITRVGNTNYADSVKGRFTISRDNAKNTVYLQMNSLKPEDTAVYYCAADGVASLFGDPPTEFDYWGQGTQVTVSS	low polyreactivity

Sequence	polyreactivity (PSR sort gate)
QVQLVESGGGLVQAGGSLRLSCAASGYILYGNTMGWYRQAPGKERELVAAISGGGSTNYADSVKGRFTISRDNAKNTVYLQMNSLKPEETAVYYCAVDVKIGTDFIGVVIPGDYWGQGTQVTVSS	low polyreactivity
QVQLVESGGGLVQAGGSLRLSCAASGYIYRYNAMGWYRQAPGKEREFVASISQRGGSTYYADSVKGRFTISRDNAKNTVYLQMNSLKPEDTAVYYCAARLGYYSYEYNYWGQGTQVTVSS	high polyreactivity
QVQLVESGGGLVQAGGSLRLSCAASGYLFSYYAMGWSRQAPGKERELVATIDWGGGSTYYADSVKGRFTISRDNAKNTVYLQMNSLKPEDTGVYYCSKDYYITKYGYRYDSWGQGTQVTVSS	low polyreactivity
QVQLVESGGGLVQAGGSLRLSCAASGYNFENNVMGWYRQAPGKERELVAVISWNGGRTYYADSVKGRFTISRDNAKNTVYLQMNSLKPEDTAVYYCNDQGYFWSESIVYDYWGQGTQVTVSS	low polyreactivity
QVQLVESGGGLVQAGGSLRLSCAASGYNFIVYTMGWYRQAPGKERELVAAISSGGITDYADSVKGRFTISRDNAKNTVYLQMNSLKPEDTAVYYWGQGTQVTVSS	low polyreactivity
QVQLVESGGGLVQAGGSLRLSCAASGYNFPLYSMGWYTQAPGKERELVADINIGGASTYYADSVKGRFTISRDNAKNTVYLQMNSLKPEDTAVYDCAKEYFDGYFPTFDYDYWGKGTQVTVSS	low polyreactivity
QVQLVESGGGLVQAGGSLRLSCAASGYSLYANAKGWSRQAPGKERELVASITFGDDSTYYADSVKGRFTISRDNAKNTVDLQMNSLKPEDTAVYYCNADHKVEVEDDYCGQGTQVTVSS	low polyreactivity
QVQLVESGGGLVQAGGSLRLSCAASGYTFAGNAMGWYRQAPGKERELVAAISRSGGRTYYADSVKGRFTISRDNAKNTVYLQMNSLKPEDTAVYYCAAYGYKYDYWGQGTQVTVSS	high polyreactivity
QVQLVESGGGLVQAGGSLRLSCAASGYTFASYDMGWYRQAPGKERELVAAIDWSGGSTYYADSVKGRFTISRDNAKNTVYLQMNSLKPEDTAVYYCAAERPWTYGSDGMDYWGQGTQVTVSS	low polyreactivity
QVQLVESGGGLVQAGGSLRLSCAASGYTFDVYAMGWYRQAPGTERELVAAISDSGGSTYYADSVKGRFTISRDNAKNTVYLQMNSLKPEDTAVYFCAAGYDYFYAIVSPSEYDYWGQGTQVTVSS	low polyreactivity
QVQLVESGGGLVQAGGSLRLSCAASGYTFDYNAMGWYRQAPGKEREFVATITASGDSTYYADSVKGRFTISRDNAKNTVYLQMNSLKPEDTAVYYCATEKRDVYFTAKYDYWGQGTQVTVSS	low polyreactivity
QVQLVESGGGLVQAGGSLRLSCAASGYTFESYTMGWYRQAPGKEREFVAVISSSDTSTSYADSVKGRFTISRDNAKNTFYLQMNSLKPVDTAVYYCAAYSSPYYITYYWYNYDYWGQGTQVTVSS	low polyreactivity
QVQLVESGGGLVQAGGSLRLSCAASGYTFFLNVMGWYRQAAGKEWELVAAISYSGGSTNYADSVKGRFTISRDNAKNTVYLQMNSLKPEDTAVYYCAVTTYSGLYGFEYWGQGTQVTVSS	low polyreactivity
QVQLVESGGGLVQAGGSLRLSCAASGYTFGFYAMGWYRQAPGKERELVAAISSSGVSTSYADSVKGRFTISRDNAKNTVYLHMNSLKPEDNAVYYCNAPSYYYAYDYWGQGTQVTVSS	high polyreactivity
QVQLVESGGGLVQAGGSLRLSCAASGYTFGPYAMGWYRQAPGKERELVAAITTRGGSTYYADSVKGRFTISRDNAKNTVYLQMNSLKPEDTAVYSCAAVVNSKSIQRVVRYYYWGQGTQVTVSS	high polyreactivity
QVQLVESGGGLVQAGGSLRLSCAASGYTFGSSTMGWYRPAAGTERELVAAISNRGGPYYADAVKGRFTISRDNAKNTVYLQMNSLTPEDTAVYYCAVARRCGYDYWGQGTQVTVSS	high polyreactivity
QVQLVESGGGLVQAGGSLRLSCAASGYTFGSYAMGWYRQAPGTERELVAAIRGSGGSTYYADSVKGRFTISRDNAKNTVYLQLNSLKPEDTAVYYGATSVRRGGRQLYNYWGQGTQVTVSS	high polyreactivity
QVQLVESGGGLVQAGGSLRLSCAASGYTFGYNARGWYRQAPGKERELVANITWRGGSTNYADSVKGRFTISRDNAKNTVYLQMNSLKPEDTAVYYCAADRPWYYGRYYYWGQGTQVTVSS	high polyreactivity
QVQLVESGGGLVQAGGSLRLSCAASGYTFGYNVMGWYRQAPGKERELVAVISSGGTTYYADSVKGRFTISRDNAKNTVYLQMNSLKPEDTAVYYCNKRSAYKYRTHYGYYYWGQGTQVTVSS	high polyreactivity
QVQLVESGGGLVQAGGSLRLSCAASGYTFIVNAIGWYRQAPGKERQLVAAISRSGSSTRSADSVKWRFTISRDNAKNTVYLLMNRLKPEDTSVYYCAADLYSSEGRYYFWGQGTQVTVSS	high polyreactivity
QVQLVESGGGLVQAGGSLRLSCAASGYTFIVNAMGWYRQAPGKERELVAAISRSGSSTRYADSVKWRFTISRDNAKNTVYLQMNSLKPEDTAVYYCGADLYSSEGRYYYWGQGTQVTVST	high polyreactivity
